{"source": "patent US20190038623A1", "key": {"[1]": {"target": "human complement component C5 (human) (UniProt P01031)", "assay": "cell-based or functional assay"}, "[2]": {"target": "complement component C3 (human) (UniProt P01024)", "assay": "cell-based or functional assay"}}, "data": [{"substance": "murine monoclonal antibody to human C5, isotype IgG1K, product No. A217 from Quidel", "values": [{"measurement": "Inhibition (%) of CAP activity, CAP Wieslab assay, Experiment 2, Anti-C5 0.781 µg/mL, Compound 1 0 µM", "setting": "[1]", "result": 8.1, "unit": "%"}, {"measurement": "Inhibition (%) of CAP activity, CAP Wieslab assay, Experiment 2, Anti-C5 1.56 µg/mL, Compound 1 0 µM", "setting": "[1]", "result": 20, "unit": "%"}, {"measurement": "Inhibition (%) of CAP activity, CAP Wieslab assay, Experiment 2, Anti-C5 3.13 µg/mL, Compound 1 0 µM", "setting": "[1]", "result": 46, "unit": "%"}, {"measurement": "Inhibition (%) of CAP activity, CAP Wieslab assay, Experiment 2, Anti-C5 6.25 µg/mL, Compound 1 0 µM", "setting": "[1]", "result": 61, "unit": "%"}, {"measurement": "Inhibition (%) of CAP activity, CAP Wieslab assay, Experiment 2, Anti-C5 12.5 µg/mL, Compound 1 0 µM", "setting": "[1]", "result": 75, "unit": "%"}, {"measurement": "Inhibition (%) of CAP activity, CAP Wieslab assay, Experiment 2, Anti-C5 25 µg/mL, Compound 1 0 µM", "setting": "[1]", "result": 85, "unit": "%"}, {"measurement": "Inhibition (%) of CAP activity, CAP Wieslab assay, Experiment 2, Anti-C5 50 µg/mL, Compound 1 0 µM", "setting": "[1]", "result": 90, "unit": "%"}, {"measurement": "Inhibition (%) of CAP activity, CAP Wieslab assay, Experiment 3, Anti-C5 0.781 µg/mL, Compound 1 0 µM", "setting": "[1]", "result": 10, "unit": "%"}, {"measurement": "Inhibition (%) of CAP activity, CAP Wieslab assay, Experiment 3, Anti-C5 1.56 µg/mL, Compound 1 0 µM", "setting": "[1]", "result": 16, "unit": "%"}, {"measurement": "Inhibition (%) of CAP activity, CAP Wieslab assay, Experiment 3, Anti-C5 3.13 µg/mL, Compound 1 0 µM", "setting": "[1]", "result": 31, "unit": "%"}, {"measurement": "Inhibition (%) of CAP activity, CAP Wieslab assay, Experiment 3, Anti-C5 6.25 µg/mL, Compound 1 0 µM", "setting": "[1]", "result": 45, "unit": "%"}, {"measurement": "Inhibition (%) of CAP activity, CAP Wieslab assay, Experiment 3, Anti-C5 12.5 µg/mL, Compound 1 0 µM", "setting": "[1]", "result": 64, "unit": "%"}, {"measurement": "Inhibition (%) of CAP activity, CAP Wieslab assay, Experiment 3, Anti-C5 25 µg/mL, Compound 1 0 µM", "setting": "[1]", "result": 79, "unit": "%"}, {"measurement": "Inhibition (%) of CAP activity, CAP Wieslab assay, Experiment 3, Anti-C5 50 µg/mL, Compound 1 0 µM", "setting": "[1]", "result": 90, "unit": "%"}, {"measurement": "Inhibition (%) of CAP activity, CAP Wieslab assay, Experiment #1, Anti-C5 0.547 µg/mL, Compound 1 0 µM", "setting": "[1]", "result": 11, "unit": "%"}, {"measurement": "Inhibition (%) of CAP activity, CAP Wieslab assay, Experiment #1, Anti-C5 1.09 µg/mL, Compound 1 0 µM", "setting": "[1]", "result": 11, "unit": "%"}, {"measurement": "Inhibition (%) of CAP activity, CAP Wieslab assay, Experiment #1, Anti-C5 2.19 µg/mL, Compound 1 0 µM", "setting": "[1]", "result": 27, "unit": "%"}, {"measurement": "Inhibition (%) of CAP activity, CAP Wieslab assay, Experiment #1, Anti-C5 4.38 µg/mL, Compound 1 0 µM", "setting": "[1]", "result": 47, "unit": "%"}, {"measurement": "Inhibition (%) of CAP activity, CAP Wieslab assay, Experiment #1, Anti-C5 8.75 µg/mL, Compound 1 0 µM", "setting": "[1]", "result": 60, "unit": "%"}, {"measurement": "Inhibition (%) of CAP activity, CAP Wieslab assay, Experiment #1, Anti-C5 17.5 µg/mL, Compound 1 0 µM", "setting": "[1]", "result": 76, "unit": "%"}, {"measurement": "Inhibition (%) of CAP activity, CAP Wieslab assay, Experiment #1, Anti-C5 35 µg/mL, Compound 1 0 µM", "setting": "[1]", "result": 87, "unit": "%"}]}, {"substance": "Compstatin (peptide)", "values": [{"measurement": "IC50 (µM), Inhibition of C3 Fragment deposition on artificial PNH cells (flow cytometry, anti-C3c staining, N = 2)", "setting": "[2]", "result": 2.2, "unit": "µM"}, {"measurement": "IC50 (µM), Inhibition of C3 Fragment deposition on rabbit erythrocytes (flow cytometry, 20% C5-depleted normal human serum), N = 1", "setting": "[2]", "result": 1.4, "unit": "µM"}, {"measurement": "Inhibition (%) of CAP activity, CAP-mediated hemolysis of rabbit erythrocytes, Experiment 2, Compstatin 0.469 µM, Compound 1 0 µM", "setting": "[2]", "result": 6.9, "unit": "%"}, {"measurement": "Inhibition (%) of CAP activity, CAP-mediated hemolysis of rabbit erythrocytes, Experiment 2, Compstatin 0.934 µM, Compound 1 0 µM", "setting": "[2]", "result": 6, "unit": "%"}, {"measurement": "Inhibition (%) of CAP activity, CAP-mediated hemolysis of rabbit erythrocytes, Experiment 2, Compstatin 1.88 µM, Compound 1 0 µM", "setting": "[2]", "result": 10, "unit": "%"}, {"measurement": "Inhibition (%) of CAP activity, CAP-mediated hemolysis of rabbit erythrocytes, Experiment 2, Compstatin 3.75 µM, Compound 1 0 µM", "setting": "[2]", "result": 15, "unit": "%"}, {"measurement": "Inhibition (%) of CAP activity, CAP-mediated hemolysis of rabbit erythrocytes, Experiment 2, Compstatin 7.5 µM, Compound 1 0 µM", "setting": "[2]", "result": 41, "unit": "%"}, {"measurement": "Inhibition (%) of CAP activity, CAP-mediated hemolysis of rabbit erythrocytes, Experiment 2, Compstatin 15 µM, Compound 1 0 µM", "setting": "[2]", "result": 80, "unit": "%"}, {"measurement": "Inhibition (%) of CAP activity, CAP-mediated hemolysis of rabbit erythrocytes, Experiment 2, Compstatin 30 µM, Compound 1 0 µM", "setting": "[2]", "result": 98, "unit": "%"}, {"measurement": "Inhibition (%) of CAP activity, CAP-mediated hemolysis of rabbit erythrocytes, Experiment 3, Compstatin 0.469 µM, Compound 1 0 µM", "setting": "[2]", "result": 13, "unit": "%"}, {"measurement": "Inhibition (%) of CAP activity, CAP-mediated hemolysis of rabbit erythrocytes, Experiment 3, Compstatin 0.934 µM, Compound 1 0 µM", "setting": "[2]", "result": 17, "unit": "%"}, {"measurement": "Inhibition (%) of CAP activity, CAP-mediated hemolysis of rabbit erythrocytes, Experiment 3, Compstatin 1.88 µM, Compound 1 0 µM", "setting": "[2]", "result": 25, "unit": "%"}, {"measurement": "Inhibition (%) of CAP activity, CAP-mediated hemolysis of rabbit erythrocytes, Experiment 3, Compstatin 3.75 µM, Compound 1 0 µM", "setting": "[2]", "result": 40, "unit": "%"}, {"measurement": "Inhibition (%) of CAP activity, CAP-mediated hemolysis of rabbit erythrocytes, Experiment 3, Compstatin 7.5 µM, Compound 1 0 µM", "setting": "[2]", "result": 63, "unit": "%"}, {"measurement": "Inhibition (%) of CAP activity, CAP-mediated hemolysis of rabbit erythrocytes, Experiment 3, Compstatin 15 µM, Compound 1 0 µM", "setting": "[2]", "result": 97, "unit": "%"}, {"measurement": "Inhibition (%) of CAP activity, CAP-mediated hemolysis of rabbit erythrocytes, Experiment 3, Compstatin 30 µM, Compound 1 0 µM", "setting": "[2]", "result": 98, "unit": "%"}, {"measurement": "Inhibition (%) of CAP activity, CAP-mediated hemolysis of rabbit erythrocytes, Experiment 4, Compstatin 0.469 µM, Compound 1 0 µM", "setting": "[2]", "result": 9, "unit": "%"}, {"measurement": "Inhibition (%) of CAP activity, CAP-mediated hemolysis of rabbit erythrocytes, Experiment 4, Compstatin 0.934 µM, Compound 1 0 µM", "setting": "[2]", "result": 12, "unit": "%"}, {"measurement": "Inhibition (%) of CAP activity, CAP-mediated hemolysis of rabbit erythrocytes, Experiment 4, Compstatin 1.88 µM, Compound 1 0 µM", "setting": "[2]", "result": 22, "unit": "%"}, {"measurement": "Inhibition (%) of CAP activity, CAP-mediated hemolysis of rabbit erythrocytes, Experiment 4, Compstatin 3.75 µM, Compound 1 0 µM", "setting": "[2]", "result": 34, "unit": "%"}, {"measurement": "Inhibition (%) of CAP activity, CAP-mediated hemolysis of rabbit erythrocytes, Experiment 4, Compstatin 7.5 µM, Compound 1 0 µM", "setting": "[2]", "result": 64, "unit": "%"}, {"measurement": "Inhibition (%) of CAP activity, CAP-mediated hemolysis of rabbit erythrocytes, Experiment 4, Compstatin 15 µM, Compound 1 0 µM", "setting": "[2]", "result": 98, "unit": "%"}, {"measurement": "Inhibition (%) of CAP activity, CAP-mediated hemolysis of rabbit erythrocytes, Experiment 4, Compstatin 30 µM, Compound 1 0 µM", "setting": "[2]", "result": 99, "unit": "%"}, {"measurement": "Inhibition (%) of CAP activity, CAP-mediated hemolysis of rabbit erythrocytes, Experiment #1, Compstatin 0.469 µM, Compound 1 0 µM", "setting": "[2]", "result": 7.3, "unit": "%"}, {"measurement": "Inhibition (%) of CAP activity, CAP-mediated hemolysis of rabbit erythrocytes, Experiment #1, Compstatin 0.934 µM, Compound 1 0 µM", "setting": "[2]", "result": 3.6, "unit": "%"}, {"measurement": "Inhibition (%) of CAP activity, CAP-mediated hemolysis of rabbit erythrocytes, Experiment #1, Compstatin 1.88 µM, Compound 1 0 µM", "setting": "[2]", "result": 8.6, "unit": "%"}, {"measurement": "Inhibition (%) of CAP activity, CAP-mediated hemolysis of rabbit erythrocytes, Experiment #1, Compstatin 3.75 µM, Compound 1 0 µM", "setting": "[2]", "result": 17, "unit": "%"}, {"measurement": "Inhibition (%) of CAP activity, CAP-mediated hemolysis of rabbit erythrocytes, Experiment #1, Compstatin 7.5 µM, Compound 1 0 µM", "setting": "[2]", "result": 38, "unit": "%"}, {"measurement": "Inhibition (%) of CAP activity, CAP-mediated hemolysis of rabbit erythrocytes, Experiment #1, Compstatin 15 µM, Compound 1 0 µM", "setting": "[2]", "result": 65, "unit": "%"}, {"measurement": "Inhibition (%) of CAP activity, CAP-mediated hemolysis of rabbit erythrocytes, Experiment #1, Compstatin 30 µM, Compound 1 0 µM", "setting": "[2]", "result": 98, "unit": "%"}, {"measurement": "Inhibition (%) of CAP-mediated hemolysis of PNH erythrocytes, Experiment 2, Compstatin 4.69 µM alone (Compound 1 0 µM)", "setting": "[2]", "result": 0, "unit": "%"}, {"measurement": "Inhibition (%) of CAP-mediated hemolysis of PNH erythrocytes, Experiment 2, Compstatin 9.38 µM alone (Compound 1 0 µM)", "setting": "[2]", "result": 0, "unit": "%"}, {"measurement": "Inhibition (%) of CAP-mediated hemolysis of PNH erythrocytes, Experiment 2, Compstatin 18.8 µM alone (Compound 1 0 µM)", "setting": "[2]", "result": 0, "unit": "%"}, {"measurement": "Inhibition (%) of CAP-mediated hemolysis of PNH erythrocytes, Experiment 2, Compstatin 37.5 µM alone (Compound 1 0 µM)", "setting": "[2]", "result": 0, "unit": "%"}, {"measurement": "Inhibition (%) of CAP-mediated hemolysis of PNH erythrocytes, Experiment 2, Compstatin 75 µM alone (Compound 1 0 µM)", "setting": "[2]", "result": 10, "unit": "%"}, {"measurement": "Inhibition (%) of CAP-mediated hemolysis of PNH erythrocytes, Experiment 2, Compstatin 150 µM alone (Compound 1 0 µM)", "setting": "[2]", "result": 71, "unit": "%"}, {"measurement": "Inhibition (%) of CAP-mediated hemolysis of PNH erythrocytes, Experiment 2, Compstatin 300 µM alone (Compound 1 0 µM)", "setting": "[2]", "result": 99, "unit": "%"}, {"measurement": "Inhibition (%) of CAP-mediated hemolysis of PNH erythrocytes, Experiment #1, Compstatin 4.69 µM alone (Compound 1 0 µM)", "setting": "[2]", "result": 0, "unit": "%"}, {"measurement": "Inhibition (%) of CAP-mediated hemolysis of PNH erythrocytes, Experiment #1, Compstatin 9.38 µM alone (Compound 1 0 µM)", "setting": "[2]", "result": 0, "unit": "%"}, {"measurement": "Inhibition (%) of CAP-mediated hemolysis of PNH erythrocytes, Experiment #1, Compstatin 18.8 µM alone (Compound 1 0 µM)", "setting": "[2]", "result": 0, "unit": "%"}, {"measurement": "Inhibition (%) of CAP-mediated hemolysis of PNH erythrocytes, Experiment #1, Compstatin 37.5 µM alone (Compound 1 0 µM)", "setting": "[2]", "result": 0, "unit": "%"}, {"measurement": "Inhibition (%) of CAP-mediated hemolysis of PNH erythrocytes, Experiment #1, Compstatin 75 µM alone (Compound 1 0 µM)", "setting": "[2]", "result": 9, "unit": "%"}, {"measurement": "Inhibition (%) of CAP-mediated hemolysis of PNH erythrocytes, Experiment #1, Compstatin 150 µM alone (Compound 1 0 µM)", "setting": "[2]", "result": 86, "unit": "%"}, {"measurement": "Inhibition (%) of CAP-mediated hemolysis of PNH erythrocytes, Experiment #1, Compstatin 300 µM alone (Compound 1 0 µM)", "setting": "[2]", "result": 98, "unit": "%"}]}]}
